{
  "source": "patent US20240182536A1",
  "about": "(MURAL ONCOLOGY, published 2024)",
  "binders": {"B1": {"name": "yeast display IL-18 variant K53Y, S55Y (ligand)", "chain": "YFGKLESKLSVIRNLNDQVLFIDQGNRPLFEDMTDSDMRDNAPRTIFIISMYYDYQPRGMAVTISVKSEKISTLSSENKIISFKEMNPPDNIKDTKSDIIFFQRSVPGHDNKMQFESSSYEGYFLASEKERDLFKLILKKEDELGDRSIMFTVQNED"}, "B2": {"name": "yeast display IL-18 variant K53Q, D54N, S55M, Q56H (ligand)", "chain": "B1 chain with Y53Q, D54N, Y55M, Q56H"}, "B3": {"name": "yeast display IL-18 variant K53N, S55I (ligand)", "chain": "B1 chain with Y53N, Y55I"}, "B4": {"name": "yeast display IL-18 variant K53Y, S55G (ligand)", "chain": "B1 chain with Y55G"}, "B5": {"name": "yeast display IL-18 variant T34I, S36V, D40I, N41M, K53G, S55Y (ligand)", "chain": "B1 chain with T34I, S36V, D40I, N41M, Y53G"}, "B6": {"name": "yeast display IL-18 variant T34I, S36T, D40A, N41M, K53T, S55Y (ligand)", "chain": "B1 chain with T34I, S36T, D40A, N41M, Y53T"}, "B7": {"name": "yeast display IL-18 variant K53W, S55A (ligand)", "chain": "B1 chain with Y53W, Y55A"}, "B8": {"name": "yeast display IL-18 variant K53N, S55M, R104S, P107A (ligand)", "chain": "B1 chain with Y53N, Y55M, R104S, P107A"}},
  "note": "Substitutions are numbered along the chain they refer to. Numbers in names are those of the source.",
  "data": [
    {"target": "T1, IL-18 receptors on HEK-Blue IL-18 reporter cells (UniProt Q13478 19-541; O95256 20-599, limits assumed)", "T1 sequence (looked up) 1": "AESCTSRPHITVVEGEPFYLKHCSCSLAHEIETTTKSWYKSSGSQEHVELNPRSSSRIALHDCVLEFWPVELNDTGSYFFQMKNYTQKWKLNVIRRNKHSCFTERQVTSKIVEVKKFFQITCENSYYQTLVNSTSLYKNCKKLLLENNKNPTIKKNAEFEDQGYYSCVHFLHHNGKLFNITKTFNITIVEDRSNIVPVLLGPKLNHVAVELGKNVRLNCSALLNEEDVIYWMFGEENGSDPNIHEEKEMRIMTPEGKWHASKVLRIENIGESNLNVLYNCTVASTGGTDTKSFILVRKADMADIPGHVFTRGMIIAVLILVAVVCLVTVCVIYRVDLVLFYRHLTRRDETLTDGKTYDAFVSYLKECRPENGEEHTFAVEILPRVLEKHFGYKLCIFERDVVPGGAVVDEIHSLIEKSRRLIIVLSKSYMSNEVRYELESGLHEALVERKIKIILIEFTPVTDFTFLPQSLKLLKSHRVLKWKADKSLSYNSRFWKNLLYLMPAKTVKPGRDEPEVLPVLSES", "T1 sequence (looked up) 2": "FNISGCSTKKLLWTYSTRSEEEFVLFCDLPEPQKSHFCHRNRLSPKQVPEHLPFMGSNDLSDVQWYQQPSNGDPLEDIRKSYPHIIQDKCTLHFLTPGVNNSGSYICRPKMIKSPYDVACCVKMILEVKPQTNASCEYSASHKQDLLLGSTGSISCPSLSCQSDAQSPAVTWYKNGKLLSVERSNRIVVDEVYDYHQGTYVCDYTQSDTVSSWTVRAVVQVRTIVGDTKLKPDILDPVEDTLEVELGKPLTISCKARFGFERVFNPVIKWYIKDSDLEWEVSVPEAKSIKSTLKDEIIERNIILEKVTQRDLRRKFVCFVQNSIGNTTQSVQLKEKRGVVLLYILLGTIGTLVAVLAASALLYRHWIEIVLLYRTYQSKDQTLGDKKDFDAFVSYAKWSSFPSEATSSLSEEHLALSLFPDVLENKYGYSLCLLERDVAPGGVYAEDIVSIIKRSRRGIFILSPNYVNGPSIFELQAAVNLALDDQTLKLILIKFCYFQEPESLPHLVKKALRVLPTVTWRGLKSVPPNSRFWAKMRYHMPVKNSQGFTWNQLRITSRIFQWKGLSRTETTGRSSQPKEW", "test": "cell-based or functional assay", "values": [
      {"binder": "B1", "HEK-Blue activity, No BP, DF-10000": 0.38, "HEK-Blue activity, No BP, DF-100,000": 0.17, "HEK-Blue activity, No BP, DF-1,000,000": 0.12},
      {"binder": "B2", "HEK-Blue activity, No BP, DF-10000": 0.46, "HEK-Blue activity, No BP, DF-100,000": 0.13, "HEK-Blue activity, No BP, DF-1,000,000": 0.09},
      {"binder": "B3", "HEK-Blue activity, No BP, DF-10000": 0.32, "HEK-Blue activity, No BP, DF-100,000": 0.11, "HEK-Blue activity, No BP, DF-1,000,000": 0.09},
      {"binder": "B4", "HEK-Blue activity, No BP, DF-10000": 0.36, "HEK-Blue activity, No BP, DF-100,000": 0.14, "HEK-Blue activity, No BP, DF-1,000,000": 0.12},
      {"binder": "B5", "HEK-Blue activity, No BP, DF-10000": 0.3, "HEK-Blue activity, No BP, DF-100,000": 0.11, "HEK-Blue activity, No BP, DF-1,000,000": 0.14},
      {"binder": "B6", "HEK-Blue activity, No BP, DF-10000": 0.38, "HEK-Blue activity, No BP, DF-100,000": 0.18, "HEK-Blue activity, No BP, DF-1,000,000": 0.14},
      {"binder": "B7", "HEK-Blue activity, No BP, DF-10000": 0.28, "HEK-Blue activity, No BP, DF-100,000": 0.13, "HEK-Blue activity, No BP, DF-1,000,000": 0.11},
      {"binder": "B8", "HEK-Blue activity, No BP, DF-10000": 0.8, "HEK-Blue activity, No BP, DF-100,000": 0.24, "HEK-Blue activity, No BP, DF-1,000,000": 0.12}
    ]},
    {"target": "T2, human IL-18 binding protein (human, UniProt O95998 31-194)", "T2 sequence (looked up)": "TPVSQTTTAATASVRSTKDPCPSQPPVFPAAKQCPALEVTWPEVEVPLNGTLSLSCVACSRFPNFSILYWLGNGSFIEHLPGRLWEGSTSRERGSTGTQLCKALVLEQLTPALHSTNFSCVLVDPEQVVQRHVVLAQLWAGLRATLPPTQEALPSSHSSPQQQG", "test": "cell-based or functional assay", "values": [
      {"binder": "B1", "HEK-Blue activity, +100 nM BP, DF-10000": 0.24, "HEK-Blue activity, +100 nM BP, DF-100,000": 0.14, "HEK-Blue activity, +100 nM BP, DF-1,000,000": 0.21, "Ratio (-BP/+BP), DF-10000": 1.57, "Ratio (-BP/+BP), DF-100,000": 1.21, "Ratio (-BP/+BP), DF-1,000,000": 0.57},
      {"binder": "B2", "HEK-Blue activity, +100 nM BP, DF-10000": 0.21, "HEK-Blue activity, +100 nM BP, DF-100,000": 0.11, "HEK-Blue activity, +100 nM BP, DF-1,000,000": 0.09, "Ratio (-BP/+BP), DF-10000": 2.21, "Ratio (-BP/+BP), DF-100,000": 1.16, "Ratio (-BP/+BP), DF-1,000,000": 1.06},
      {"binder": "B3", "HEK-Blue activity, +100 nM BP, DF-10000": 0.29, "HEK-Blue activity, +100 nM BP, DF-100,000": 0.11, "HEK-Blue activity, +100 nM BP, DF-1,000,000": 0.09, "Ratio (-BP/+BP), DF-10000": 1.1, "Ratio (-BP/+BP), DF-100,000": 1, "Ratio (-BP/+BP), DF-1,000,000": 0.99},
      {"binder": "B4", "HEK-Blue activity, +100 nM BP, DF-10000": 0.21, "HEK-Blue activity, +100 nM BP, DF-100,000": 0.16, "HEK-Blue activity, +100 nM BP, DF-1,000,000": 0.13, "Ratio (-BP/+BP), DF-10000": 1.71, "Ratio (-BP/+BP), DF-100,000": 0.88, "Ratio (-BP/+BP), DF-1,000,000": 0.94},
      {"binder": "B5", "HEK-Blue activity, +100 nM BP, DF-10000": 0.21, "HEK-Blue activity, +100 nM BP, DF-100,000": 0.1, "HEK-Blue activity, +100 nM BP, DF-1,000,000": 0.09, "Ratio (-BP/+BP), DF-10000": 1.46, "Ratio (-BP/+BP), DF-100,000": 1.11, "Ratio (-BP/+BP), DF-1,000,000": 1.52},
      {"binder": "B6", "HEK-Blue activity, +100 nM BP, DF-10000": 0.37, "HEK-Blue activity, +100 nM BP, DF-100,000": 0.12, "HEK-Blue activity, +100 nM BP, DF-1,000,000": 0.12, "Ratio (-BP/+BP), DF-10000": 1.03, "Ratio (-BP/+BP), DF-100,000": 1.45, "Ratio (-BP/+BP), DF-1,000,000": 1.18},
      {"binder": "B7", "HEK-Blue activity, +100 nM BP, DF-10000": 0.31, "HEK-Blue activity, +100 nM BP, DF-100,000": 0.16, "HEK-Blue activity, +100 nM BP, DF-1,000,000": 0.13, "Ratio (-BP/+BP), DF-10000": 0.89, "Ratio (-BP/+BP), DF-100,000": 0.84, "Ratio (-BP/+BP), DF-1,000,000": 0.84},
      {"binder": "B8", "HEK-Blue activity, +100 nM BP, DF-10000": 0.15, "HEK-Blue activity, +100 nM BP, DF-100,000": 0.12, "HEK-Blue activity, +100 nM BP, DF-1,000,000": 0.11, "Ratio (-BP/+BP), DF-10000": 5.37, "Ratio (-BP/+BP), DF-100,000": 1.93, "Ratio (-BP/+BP), DF-1,000,000": 1.08}
    ]}
  ]
}
